From article PMC5501786

Substrate: O=P(O)(O)O[C@H]1O[C@H](CO)[C@@H](O)[C@H](O)[C@H]1O
Test: purified protein
Conditions: synthetic direction, glucosyl donor 0.5-10 mM, 20 mM D-glucose, 1 mM MgCl2, 10 mM DTT, Tris-HCl pH 7.5, 60 °C
Excerpt: Pi release from G-1-P, molybdate assay, Hanes-Woolf plot on TaCDP (initially TaCBP; THA_1941)

B1: TaCDP (initially TaCBP; THA_1941) (Thermosipho africanus TCF52B) (protein)
chain: MKKFDFVIENYSKQKLFSSFLPGIAGKNGIPLWVFYVNRGQCIASFGIENKANSILEFKPAGQSHTDTPLKGFRTFIKVDGRYYEPFSELTNFKREMRINKNSLEIEERNNELGLKVKVIYFVLPNEDFAALVRRVEIENEDKYEKHIEIIDGLPEVIPYGVSNGLYKEMGYTARAWMHVYNYEKKVPFYSVRTTIGDLEIVEEINNGYFYFASSGDELLEVIYDKNVLFGNSTSLQVPLVFKELGIKEVLRKEQYDENLLPSAFGVLERKLKDKVVINSMIGFSKEKGLINNNINTLKKDEYIISKKEEADLIVEELVSEIKTKTSNKLFDKYCEQNYLDNVLRGGYPLVFENKDGKVVYHIYSRKHGDLERDYNFFVLEAKKYSQGNGNFRDVAQNRRNDVIFHPEIEDFNLSMFVNLIQADGNNPLVVKGTRFKFEGDPSILDGVNEELKEFILNNYFTPGEILEKLKDKNVNEDEFVSKILYHSSQHEQAEFGEGYWIDHWTYLMDLVDTYKEIYPDKLQKTLFEKFEYKIYDSHAYVKPRKEKYKLYKGKVRQIAAVGESHEKLKIIQERGHNYLTDRNGNIYKTNMFEKLLLLAVNKFATLDPYGMGLEMEANKPGWNDALNGLPALFGSGMSETFELKRLINFMYEELKKYNKDIEVFEELQEFIQKIKVELENYFNDNDQFIYWDNVSNAKEEYRSKVFYSITGNKKKISKVELLAILKKMIKKLDEGIERAKNYGKGIYPTFFTYELVDYEVIDGVIIPKKFEVNVLPYFLEGIVRAFKVIDKDEKKKLYDFVKNSNIYDKKLKMYKTSESILNQPYSIGRIRAFTPGWLENESVFMHMEFKYLLELIKSDMLEEFYEDIKTALPPYMDYKVYGRSILENSSFIVSSANSNPNLHGQGFYARLSGSTAEFLSMWKYMFIGDKLFTLENNELTFTFEPKINKEFFENGVIEFKLFSKTKVKYVNPQLKEKIGRIEVFVDGKKFEIHGNKIKGELAHKLRNKKIDEVICYFE
Km: 1570 ± 200 µM | kcat: 7.61 ± 0.66 s⁻¹ | kcat/Km: 4850 M⁻¹ s⁻¹
